To fix the notation:
B1: N-terminal head domain of human CCDC61 (hCCDC61^1-143) [human] / itself (parent)
chain: GSMDQPAGLQVDYVFRGVEHAVRVMVSGQVLELEVEDRMTADQWRGEFDAGFIEDLTHKTGNFKQFNIFCHMLESALTQSSESVTLDLLTYTDLESLRNRKMGGRPGSLAPRSAQLNSKRYLILIYSVEFDRIHYPLPLPYQGKP

In the assay the parent is B1. Nature of the assay: analytical ultracentrifugation (AUC). The note with it: with itself.
For GSMDQPAGLQVDYVFRGVEHAVRVMVSGQVLELEVEDRMTADQWRGEFDAGFIEDLTHKTGNFKQFNIFCHMLESALTQSSESVTLDLLTYTDLESLRNRKMGGRPGSLAPRSAQLNSKRYLILIYSVEEARIHYPLPLPYQGKP, the screen value came to 16 kDa.

The values above are taken from publication PMC7267773, “CCDC61/VFL3 Is a Paralog of SAS6 and Promotes Ciliary Functions” (Structure(London, England:1993), 2020).
